# ± gives the standard deviation of the averaged measurements.
# B1: library; numbered along this chain (parent)
# chain: MNIQIGELAKRTACPVVTIRFYEQEGLLPPPGRSRGNFRLYGEEHVERLQFIRHCRSLDMPLSDVRTLLSYRKRPDQDCGEVNMLLDEHIRQVESRIGALLELKHHLVELREACSGARPAQSCGILQGLSDCVCDTRGTTAHPSD
# What was measured:
# [1] = variants of: B1; test: sfGFP reporter fluorescence (15 h) (µM FITC); higher = higher leak; conditions: library round: Round 1; ligand: none
# Procedure: (§1)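 Cell-free biosensing: 1 µL Echo-assembled CFE reactions with linear PbrR variant templates (5 nM) and pPbrR-sfGFP reporter, with 1 µM Pb, 30 µM Zn or no ligand; endpoint sfGFP fluorescence after 15 h at 30 °C calibrated as µM FITC. Round 1 ML-predicted PbrR mutants; 3 biological replicates.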
# [2] = variants of: B1; test: sfGFP reporter fluorescence (15 h) (µM FITC); higher = stronger transcriptional activation; conditions: library round: Round 1
# Procedure: as §1
Variant,sfGFP reporter fluorescence [1],sfGFP reporter fluorescence ([2]; ligand: 1 µM Pb),sfGFP reporter fluorescence ([2]; ligand: 30 µM Zn)
MNIQIGELAKRTACPVVTIRFYEQEGLLPPPGRSRGNFRLYGEEHVERLQFIRHCRSLDMPLSDVRTLLSYRKRPDQDCGEVTMLLDEHIRQVESRIGALLELKHHLVELREACSGARPAQSCGILQGLSSCVCDTRGTTAHASD [N83T D131S P143A],0.059 ± 0.0033,0.0792 ± 0.0071,0.156 ± 0.017
MNIQIGELAKRTACPVVTIRFYEQEGLLPPPGRSRGNFRLYGEEHVERLQFIRHCRSLDMPLSDVRTLLSYRKRPDQDCGEVTMLLDEHIRQVESRIGALLELKHHLVELREACSGARPAQSCGILQGLSSCVCDTRGTTAHYSD [N83T D131S P143Y],0.0614 ± 0.0015,0.0782 ± 0.0092,0.144 ± 0.014
MNIQIGELAKRTACPVVTIRFYEQEGLLPPPGRSRGNFRLYGEEHVERLQFIRHCRSLDMPLSDVRTLLSYRKRPDQDCGEVTMLLDEHIRQVESRIGALLELKHHLVELREACSGARPAQSCGILQGLSSCVCRTRGTTAHPSD [N83T D131S D135R],0.064 ± 0.0013,0.0955 ± 0.0087,0.21 ± 0.0094
MNIQIGELAKRTACPVVTIRFYEQEGLLPPPGRSRGNFRLYGEEHVERLQFIRHCRSLDMPLSDVRTLLSYRKRPDQDCGEVTMLLDEHIRQVESRIGALLELKHHLVELREACSGARPAQSCGILQGLSSCVCATRGTTAHPSD [N83T D131S D135A],0.0613 ± 0.0024,0.0871 ± 0.0043,0.193 ± 0.0075
MNIQIGELAKRTACPVVTIRFYEQEGLLPPPGRSRGNFRLYGEEHVERLQFIRHCRSLDMPLSDVRTLLSYRKRPDQDCGEVTMLLDEHIRQVESRIGALLELKHHLVELREACSGARPAQSCGILQGLSDCVCATRGTTAHASD [N83T D135A P143A],0.0625 ± 0.002,0.0748 ± 0.0033,0.162 ± 0.0078
MNIQIGELAKRTACPVVTIRFYEQEGLLPPPGRSRGNFRLYGEEHVERLQFIRHCRSLDMPLSDVRTLLSYRKRPDQDCGEVTMLLDEHIRQVESRIGALLELKHHLVELREACSGARPAQSCGILQGLSDCVCFTRGTTAHPSD [N83T D135F],0.0665 ± 0.00076,0.0911 ± 0.014,0.435 ± 0.062
MNIQIGELAKRTACPVVTIRFYEQEGLLPPPGRSRGNFRLYGEEHVERLQFIRHCRSLDMPLSDVRTLLSYRKRPDQDCGEVTMLLDEHIRQVESRIGALLELKHHLVELREACSGARPAQSCGILQGLSDCVCPTRGTTAHPSD [N83T D135P],0.0602 ± 0.0037,0.0771 ± 0.00092,0.106 ± 0.0033
MNIQIGELAKRTACPVVTIRFYEQEGLLPPPGRSRGNFRLYGEEHVERLQFIRHCRSLDMPLSDVRTLLSYRKRPDQDCGEVTMLLDEHIRQVESRIGALLELKHHLVELREACSGARPAQSCGILQGLSDCVCVTRGTTAHPSD [N83T D135V],0.0628 ± 0.0024,0.0727 ± 0.0031,0.184 ± 0.011
MNIQIGELAKRTACPVVTIRFYEQEGLLPPPGRSRGNFRLYGEEHVERLQFIRHCRSLDMPLSDVRTLLSYRKRPDQDCGEVTMLLDEHIRQVESRIGALLELKHHLVELREACSGARPAQSCGILQGLSDCVCATRGTTAHPSD [N83T D135A],0.06316 ± 0.00056,0.0768 ± 0.0015,0.152 ± 0.0032
MNIQIGELAKRTACPVVTIRFYEQEGLLPPPGRSRGNFRLYGEEHVERLQFIRHCRSLDMPLSDVRTLLSYRKRPDQDCGEVTMLLDEHIRQVESRIGALLELKHHLVELREACSGARPAQSCGILQGLSDCVCVTRGTTAHASD [N83T D135V P143A],0.0633 ± 0.0021,0.0745 ± 0.0035,0.189 ± 0.0083
MNIQIGELAKRTACPVVTIRFYEQEGLLPPPGRSRGNFRLYGEEHVERLQFIRHCRSLDMPLSDVRTLLSYRKRPDQDCGEVTMLLDEHIRQVESRIGALLELKHHLVELREACSGARPAQSCGILQGLSSCVCDTRGTTAHPSD [N83T D131S],0.0602 ± 0.0017,0.0836 ± 0.0031,0.146 ± 0.016
MNIQIGELAKRTACPVVTIRFYEQEGLLPPPGRSRGNFRLYGEEHVERLQFIRHCRSLDMPLSDVRTLLSYRKRPDQDCGEVTMLLDEHIRQVESRIGALLELKHHLVELREACSGARPAQSCGILQGLSHCVCDTRGTTAHPSD [N83T D131H],0.0632 ± 0.0011,0.0836 ± 0.0011,0.14 ± 0.012
MNIQIGELAKRTACPVVTIRFYEQEGLLPPPGRSRGNFRLYGEEHVERLQFIRHCRSLDMPLSDVRTLLSYRKRPDQDCGEVTMLLDEHIRQVESRIGALLELKHHLVELREACSGARPAQSCGILQGLSCCVCDTRGTTAHPSD [N83T D131C],0.0627 ± 0.0013,0.0738 ± 0.0019,0.0784 ± 0.0036
MNIQIGELAKRTACPVVTIRFYEQEGLLPPPGRSRGNFRLYGEEHVERLQFIRHCRSLDMPLSDVRTLLSYRKRPDQDCGEVTMLLDEHIRQVESRIGALLELKHHLVELREACSGARPAQSCGILQGLSMCVCATRGTTAHPSD [N83T D131M D135A],0.0656 ± 0.0024,0.0837 ± 0.0023,0.205 ± 0.011
